Source: FireProtDB (doi:10.1016/0022-2836(92)90906-z)

Settings: Bacillus amyloliquefaciens; pH 6.3; 25 °C; Urea; Fluorescence; MES 1.00 M; NaCl 613 mM; reversible: yes; whole UniProt chain shown

B1: Ribonuclease wild type, P00648 (protein)
chain: MMKMEGIALKKRLSWISVCLLVLVSAAGMLFSTAAKTETSSHKAHTEAQVINTFDGVADYLQTYHKLPDNYITKSEAQALGWVASKGNLADVAPGKSIGGDIFSNREGKLPGKSGRTWREADINYTSGFRNSDRILYSSDWLIYKTTDHYQTFTKIR
In the case of B1, the denaturant m value is reported as 1.93 kcal/mol/M, the “denaturant midpoint (higher = more stable)” value is reported as 4.57 M and the unfolding free energy is reported as 8.8 kcal/mol.
